Target: T1, cytosolic domain of SEC12 (PREB), his-tagged (UniProt Q9HCU5 1-388)
T1 sequence (looked up): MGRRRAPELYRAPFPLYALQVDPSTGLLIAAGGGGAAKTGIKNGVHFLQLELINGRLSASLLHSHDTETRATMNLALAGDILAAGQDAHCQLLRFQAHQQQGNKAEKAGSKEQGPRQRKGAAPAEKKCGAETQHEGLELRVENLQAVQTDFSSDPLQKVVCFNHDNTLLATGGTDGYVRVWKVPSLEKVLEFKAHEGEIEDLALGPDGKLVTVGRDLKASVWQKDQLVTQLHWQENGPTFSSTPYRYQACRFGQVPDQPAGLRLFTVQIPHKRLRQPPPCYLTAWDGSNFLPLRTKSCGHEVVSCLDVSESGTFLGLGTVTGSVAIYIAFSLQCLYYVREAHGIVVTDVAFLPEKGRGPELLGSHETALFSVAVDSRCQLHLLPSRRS
Assay: liposome flotation

fold recruitment to liposomes with SEC12 against without SEC12: ~3.5 fold
B1: fatty-acid binding protein 5 (FABP5), rat (natural protein, UniProt P55053 1-135, looked up)
chain: MASLKDLEGKWRLVESHGFEDYMKELGVGLALRKMGAMAKPDCIITLDGNNLTVKTESTVKTTVFSCTLGEKFDETTADGRKTETVCTFTDGALVQHQKWEGKESTITRKLKDGKMVVECVMNNAICTRVYEKVQ

From publication PMC6589570 (Molecular Biology of the Cell, 2019)
